Experimental data reported in the supplement of paper PMC9170038.

Tested on: MS2 coat protein
Experiment: apparent KD of MS2 coat protein; designed switch direction (-1 OFF switch, 1 ON switch): -1; higher = weaker reporter binding
In short: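 An oligonucleotide input, 200 uM small-molecule ligand, or no input was present during titration of SNAP-549-labelled MS2 coat protein, which was doubled from 0.7 or 1.5 nM to 3 µM. Designed RNA switches had been transcribed on Illumina chips by stalled E. coli RNA polymerase. Apparent KD per design is the median over clusters of curves fitted to normalised cluster fluorescence.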

[1] = input ligand: microRNA oligo, concentration not stated
[2] = Eterna round: R95, input ligand: microRNA oligo, concentration not stated
[3] = Eterna round: R95, input ligand: FMN 200 uM
[4] = Eterna round: R95, input ligand: none

Row | Sequence | apparent KD of MS2 coat protein [1] [nM] | apparent KD of MS2 coat protein (input ligand: FMN 200 uM) [nM] | apparent KD of MS2 coat protein (input ligand: none) [nM] | apparent KD of MS2 coat protein [2] [nM] | apparent KD of MS2 coat protein [3] [nM] | apparent KD of MS2 coat protein [4] [nM]
1 | GCACGGAGUGUAGGAUAUUAGUGCGAUUAGCACUGAGAAGGACAUGAGGAUCACCCAUGUUCCUCAAUAACAUACCUUCCGUGC [Eli exng1 - 042] (Eterna round: R96, puzzle: Exclusion NG 1) | 9.5 |  |  |  |  | 
2 | AACCGCAUAGGAUAUCGAGCAGAGGACUUGAGGAUCACCCAAGUCCUUGAGUUCUUUGUCCGAGAAGGAUGAACAU [Ususrace] (Eterna round: R97, puzzle: Exclusion 5) |  | 13.7 | 14.6 |  |  | 
3 | UUUGUGUCAGGAUAUGAGUCGUAGAACAAUAGUACUACGUCUCAGAAGGGACAUGAGGAUCACCCAUGUGCCUC [Fiskers Ex 4 Super Stable 44 mod 27] (puzzle: Exclusion 4) |  |  |  | 34.9 |  | 
4 | UUAAUUAAUUAAUUAUAAGAUCAACAUGAGGAUCACCCAUGUGAGGAUAUCAGCUCGAUUAGAGCUGAGAAGGCACAAAUAAUU [ExNG3/16-B1] (Eterna round: R96, puzzle: Exclusion NG 3) | 53.6 | 147 | 44 |  |  | 
5 | ACAUGAGGAUCACCCAUGUCUGGCUGGUCCGUCUCGGCUGUCGAGGAUAUGGCUCGGUGUCCGCGCUAGAAGGCGGGAGCUGGU [Aenatbe mod 79] (Eterna round: R96, puzzle: Exclusion NG 3) | 45 | 195 | 77.5 |  |  | 
6 | UAUUCACAUGAGGAUCACCCAUGUCAGGAUAUGCUCGAUAUAUGGAAACAUAUAUCGAGCAGAAGGGACUAGCG [Jieuxxlusion 8 - Jieux - Exclusion 1] (Eterna round: R97, puzzle: Exclusion 1) |  | 98.7 | 41.2 |  |  | 
7 | AGUACUGGCGCGUCGGUGUUGGUACAAUAAGCUUGUGAAACAUGAGGAUCACCCAUGUCCUCAUAAGCUCGUCUUAU [salish99_TOv2_r2_083] (puzzle: Sensor v3, turn-off variant 2) |  |  |  | 600 | 16.9 | 16.5
8 | UUUAGUUCAGGAUAUGAUGAAAUUAACAUGAGGAUCACCCAUGUAGAUCCUGAAUUAACAUCAGAAGGGAACAUUU [JL-ex5-4.44 Brourd mod] (Eterna round: R97, puzzle: Exclusion 5) |  | 57.8 | 10.8 |  |  | 
9 | UGAGUGCUGCGAGGAUAUACAUGAGGAUCACCCAUGUUUACCUGUGAGGCUUUGCCUCACAGGUUGUAGAAGGCGCAGUACUCU [JL ENG2 1.15] (Eterna round: R96, puzzle: Exclusion NG 2) | 9.11 | 10.2 | 12.4 |  |  | 
10 | GGUACUCAAAGAGUACCAAUACGAACAUGAGGAUCACCCAUGUAGGAUAUGCUACUCAAAGAGUAGCAGAAGGAUAUGAUCGAU [Far Half Aptamer v14] (Eterna round: R96, puzzle: Exclusion NG 3) | 27.9 | 45.6 | 40.6 |  |  | 
11 | UAAAAGGAUGUCAGGAUAUGCGCUUGGGAUCAAGAGCAGAAGGGACAUGAGGAUCACCCAUGUAACGGUGCGAA [Oraninus] (puzzle: Brourd's mod of Exclusion 4) |  |  |  | 33.9 | 36.4 | 44.5
12 | CCGGUAUAGGAGGAUAUAGGAGUCGAUAGACACCUAGAAGGCCUGACAUGAGGAUCACCCAUGUGUCCUUCCGG [Fiskers Ex 6 - 95] (puzzle: Exclusion 6) |  |  |  | 17.7 |  | 
13 | ACAUGAGGAUCACCCAUGUGACCACAAUGGCUGAUAUAGAAACAGGAUAUUCGUGAAUAUCUAACGAAGAAGGGUUAUGACUGG [Deportation 65 - Jieux - Exclusion NG 3] (Eterna round: R96, puzzle: Exclusion NG 3) | 61 |  |  |  |  | 
14 | AUUCAACAUGAGGAUCACCCAUGUGAGGAUAUGCGAGUGCAGACUUCGGUUUGAUAGAGCAGAAGGCGCAGGUA [EX1 #13] (Eterna round: R97, puzzle: Exclusion 1) |  | 69.6 | 30.8 |  |  | 
15 | ACAUUCAGAGGAUAUGCGCAUAGAUAAGACUUUGUUUCUUAACAUGAGGAUCACCCAUGUAGAAGGCUGUACCC [Ex2 #66] (Eterna round: R97, puzzle: Exclusion 2) |  | 26.6 | 20.9 |  |  | 
16 | AGAUCUAGGACAGGAUAUACUGAUGGCUUCAUCGAAGAUGAAGCCAUCACAUGAGGAUCACCCAUGUAGAAGGGUCCUAGAUCA [Omei Exc(NG) 2Av8] (Eterna round: R96, puzzle: Exclusion NG 2) | 9.55 |  |  |  |  | 
17 | AAUUUACAUGAGGAUCACCCAUGUCAGGAUAUGGUUUUAUUUUUUUCUUUUCUUGAUUCCAGAAGGGACAGUUA (puzzle: Exclusion 1) |  |  |  | 81.6 |  | 
18 | CUGUACUGAGGAUAUACAUGAGGAUCACCCAUGUGAUUCAGUGCACGCGUACGUGUACGUAGAAGGCAGUACAG [Mat - Exclusion 3 - Eli Mod - D37] (Eterna round: R97, puzzle: Exclusion 3) |  | 750 | 42.5 |  |  | 
19 | CUGUUUUUCGCAGGAUAUGCUUCUCCUUUAUUAGCAGAAGGGCGUUAAACAUGAGGAUCACCCAUGUAUGGUAAUGAUAUUUUC [JR_ExcNG1_Sub060] (Eterna round: R96, puzzle: Exclusion NG 1) | 52.3 | 145 | 55.8 |  |  | 
20 | GUACAACAUGAGGAUCACCCAUGUGAGGAUAUGCGAAUUUCAUCAAAAGAUGAAAUUUGCAGAAGGCACAGUAC [Omei Ex1 A8] (Eterna round: R97, puzzle: Exclusion 1) |  | 26.6 | 32.8 |  |  | 
21 | CGGUGACAUGAGGAUCACCCAUGUCAGGAUAUCCAGGUCGACAAUGAGCUGUACGAUUGGAGAAGGGAUACGGG [EX1 C.9] (Eterna round: R97, puzzle: Exclusion 1) |  | 20.6 | 23.7 |  |  | 
22 | AUACUCGAAGGAUAUGUGUAAGAGUACAUGAGGAUCACCCAUGUCCUAAGCACUUGGACGGCAGAAGGUCGACUGU [Eternabot (L2) Solution 36] (Eterna round: R97, puzzle: Exclusion 5) |  | 57.7 | 25.1 |  |  | 
23 | GGUUGGCGAGGAUAUACAUGAGGAUCACCCAUGUGAGAGAAAAAAGUGAGAACGAAAAGUAGAAGGCGCUGACG [salish99_ex3_r3_057] (puzzle: Exclusion 3) |  |  |  | 122 | 272 | 76.9
24 | CAGUACUGAGGAUAUACAUGAGGAUCACCCAUGUGUGUGAGAAUUGUAUGAAUGUUAUGUAGAAGGCGGUGCUG [JR_Ex3_Sub033] (Eterna round: R97, puzzle: Exclusion 3) |  | 143 | 765 |  |  | 
25 | CUCUUGUCAGGAUAUCAACGCCGCCCACACAGGCGGCGAAAUGAGAAGGGACAUGAGGAUCACCCAUGUUAAAA [Tiaonbi] (puzzle: Exclusion 4) |  |  |  | 86.1 | 24.3 | 168
26 | GGGACCCUUGUAGGAUAUAGAACCGCAGGAGGUCUAGAAGGGCACUGGUCGCCGUGGACAUGAGGAUCACCCAUGUGUUUGCCC [Eternabot solution 36] (Eterna round: R96, puzzle: Exclusion NG 1) | 40.2 | 55.2 | 52.4 |  |  | 
